Columns and labels:
Experiment in all cases: SPR
Details in all cases: both partners purified
[1] = target: T1, Recombinant Human Vimentin Protein, CF (human, UniProt P08670 1-466)
T1 construct: source: bought: Novus Biologicals, LLC/R&D Systems

[2] = target: T2, Recombinant Human GRP75/HSPA9B/Mortalin His Protein (human, UniProt P38646 47-679)
T2 construct: source: bought: Novus Biologicals, LLC/R&D Systems

[3] = target: T1, Recombinant Human Vimentin Protein, CF; remark: listed apart in the source
[4] = target: T2, Recombinant Human GRP75/HSPA9B/Mortalin …; remark: listed apart in the source

T1 sequence (P08670 whole entry): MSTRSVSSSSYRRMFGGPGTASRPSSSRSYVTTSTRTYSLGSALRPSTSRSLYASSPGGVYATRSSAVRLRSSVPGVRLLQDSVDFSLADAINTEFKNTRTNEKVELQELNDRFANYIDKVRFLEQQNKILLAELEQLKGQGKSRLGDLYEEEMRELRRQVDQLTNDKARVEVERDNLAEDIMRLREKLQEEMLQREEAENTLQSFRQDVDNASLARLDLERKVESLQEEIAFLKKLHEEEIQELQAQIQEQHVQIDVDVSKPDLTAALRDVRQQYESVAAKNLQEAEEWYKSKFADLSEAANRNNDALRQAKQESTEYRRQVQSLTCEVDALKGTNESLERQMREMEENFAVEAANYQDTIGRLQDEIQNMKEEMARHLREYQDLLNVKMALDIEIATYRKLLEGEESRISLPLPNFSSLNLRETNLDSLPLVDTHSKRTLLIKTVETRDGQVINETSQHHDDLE
T2 sequence (P38646 47-679): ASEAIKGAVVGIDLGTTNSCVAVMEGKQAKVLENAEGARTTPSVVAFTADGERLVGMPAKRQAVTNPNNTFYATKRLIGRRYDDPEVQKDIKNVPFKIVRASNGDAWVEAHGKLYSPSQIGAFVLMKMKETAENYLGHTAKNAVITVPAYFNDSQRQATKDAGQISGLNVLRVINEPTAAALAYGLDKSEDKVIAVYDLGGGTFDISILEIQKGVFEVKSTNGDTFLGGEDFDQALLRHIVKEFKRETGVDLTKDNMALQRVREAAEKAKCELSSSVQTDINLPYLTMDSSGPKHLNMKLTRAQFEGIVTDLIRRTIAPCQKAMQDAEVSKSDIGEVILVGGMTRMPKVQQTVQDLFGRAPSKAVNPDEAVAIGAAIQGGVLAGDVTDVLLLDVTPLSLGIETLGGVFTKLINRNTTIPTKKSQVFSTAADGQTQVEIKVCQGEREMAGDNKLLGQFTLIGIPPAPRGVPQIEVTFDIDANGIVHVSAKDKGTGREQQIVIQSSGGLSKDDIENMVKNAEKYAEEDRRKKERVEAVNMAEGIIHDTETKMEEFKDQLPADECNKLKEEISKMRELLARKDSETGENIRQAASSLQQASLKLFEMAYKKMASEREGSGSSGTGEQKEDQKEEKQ

B1: HIV-1 Nef protein (natural protein)
chain: MGGKWSKSSVVGWPTVRERMRRAEPAADGVGAASRDLEKHGAITSSNTAATNAACAWLEAQEEEEVGFPVTPQVPLRPMTYKAAVDLSHFLKEKGGLEGLIHSQRRQDILDLWIYHTQGYFPDWQNYTPGPGVRYPLTFGWCYKLVPVEPDKVEEANKGENTSLLHPVSLHGMDDPEREVLEWRFDSRLAFHHVARELHPEYFKNC
notes: also called full Nef protein
Work on B1 yielded a Kd [1] of 0.75 nM, a Kd [2] of 3.16 nM and a Kd [3] of 0.2 nM. For the same binder, the Kd [4] was 2.1 nM.

Reference: publication PMC12469269, “Investigating SMR Peptide Interactions with Breast Cancer-Associated Proteins” (International Journal of Molecular Sciences, 2025)
